Laboratory results from the supplement of paper PMC6757056.
± gives the standard deviation of the averaged measurements.

B1: library; a variant is named by its letters at N, in order (parent)
chain: GCUGUCACCGGUGUAUUACCCUAGUGGUCGACCGGUCUGAUGAGUCUNNNNNNAGACGAAACAGC

Legend:
hypoxanthine [1] = variants of: B1; assay: normalized RNA/DNA level with ligand (relative to sTRSVctl = 100) (log10 (% of sTRSVctl)); ligand: hypoxanthine (xanthine aptamer); higher = less ribozyme self-cleavage, higher mRNA level; conditions: ligand concentration (+) RNA-Seq: 5 mM, HEK293T, reporter: mCherry (pCS4076), ligand present: yes
Procedure, shortened: (§1)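 Only sequences with at least 100 DNA reads were analyzed, from HEK293T cells transfected with 4 µg per 6-well well of ribozyme switch library plasmids 72 h before RNA extraction with EDTA. Any ligand was added 1 h before transfection. RNA level was defined as RNA over DNA reads, normalized to a spiked-in non-cleaving sequence or to the top sequences, then scaled and log-transformed. The top set was 25 sequences, and the scaling was ×100 followed by log10.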

hypoxanthine [2] = variants of: B1; assay: normalized RNA/DNA level without ligand (relative to sTRSVctl = 100) (log10 (% of sTRSVctl)); ligand: hypoxanthine (xanthine aptamer); higher = less ribozyme self-cleavage, higher mRNA level; conditions: HEK293T, reporter: mCherry (pCS4076), ligand present: no
Procedure, shortened: as §1

| Variant | normalized RNA/DNA level with ligand (log10) (hypoxanthine [1]) | normalized RNA/DNA level without ligand (log10) (hypoxanthine [2]) |
| --- | --- | --- |
| UUGCUG | 2.009 ± 0.012 | 1.94 ± 0.028 |
| UUGCUA | 1.95 ± 0.045 | 1.897 ± 0.0028 |
| UUGCUC | 2.061 ± 0.0057 | 1.9913 ± 0.0008 |
| AUUCAA | 1.91 ± 0.047 | 1.82 ± 0.038 |
| AUUCAC | 1.953 ± 0.019 | 1.891 ± 0.0042 |
| AUUCAG | 1.87 ± 0.053 | 1.58 ± 0.025 |
| CUGCGG | 1.96 ± 0.1 | 1.902 ± 0.0065 |
| CUGCGU | 1.954 ± 0.013 | 1.93 ± 0.021 |
| GUUCUU | 1.95 ± 0.051 | 1.92 ± 0.034 |
| GUUCUG | 1.89 ± 0.058 | 1.54 ± 0.03 |
| GUUCUC | 1.981 ± 0.0077 | 1.95 ± 0.02 |
| GUUCUA | 1.949 ± 0.011 | 1.89 ± 0.039 |
| GUUGGC | 1.9 ± 0.029 | 1.51 ± 0.025 |
| GUUGGA | 1.913 ± 0.0093 | 1.67 ± 0.042 |
| GUUGGU | 1.9283 ± 0.00055 | 1.78 ± 0.021 |
| AUUGGC | 1.94 ± 0.03 | 1.836 ± 0.0094 |
| AUGGCA | 1.92 ± 0.035 | 1.787 ± 0.017 |
| AUGGCU | 1.89 ± 0.026 | 1.86 ± 0.031 |
| AUGGCC | 1.959 ± 0.015 | 1.883 ± 0.014 |

| Variant | normalized RNA/DNA level with ligand (log10) (hypoxanthine [1]) | normalized RNA/DNA level without ligand (log10) (hypoxanthine [2]) |
| --- | --- | --- |
| AUGCUG | 1.898 ± 0.0024 | 1.61 ± 0.048 |
| AUGCUU | 1.93 ± 0.088 | 1.861 ± 0.018 |
| AUGCUC | 2.008 ± 0.011 | 1.976 ± 0.013 |
| AUGGAU | 1.912 ± 0.0082 | 1.6566 ± 0.0015 |
| AUGGUU | 1.89 ± 0.034 | 1.763 ± 0.012 |
| GUGUUC | 1.909 ± 0.0089 | 1.84 ± 0.044 |
| GUGUUA | 1.912 ± 0.017 | 1.79 ± 0.047 |
| GUGUUU | 1.92 ± 0.041 | 1.87 ± 0.046 |
| GUUACA | 1.92 ± 0.031 | 1.8382 ± 0.0018 |
| AUUGUA | 1.89 ± 0.021 | 1.78 ± 0.022 |
| AUUGUC | 1.952 ± 0.016 | 1.969 ± 0.015 |
| AUUGUU | 1.9265 ± 0.0005 | 1.8319 ± 0.00072 |
| CUUACU | 1.96 ± 0.028 | 1.856 ± 0.0075 |
| CUUACA | 1.932 ± 0.011 | 1.83 ± 0.062 |
| CUUACG | 1.96 ± 0.025 | 1.87 ± 0.086 |
| CUUGCG | 1.937 ± 0.0067 | 1.853 ± 0.004 |
| CUUGCC | 1.9562 ± 0.0012 | 1.884 ± 0.015 |
| UUGGCC | 1.97 ± 0.066 | 2.013 ± 0.0026 |
| UUGGCA | 1.966 ± 0.0098 | 1.907 ± 0.018 |

| Variant | normalized RNA/DNA level with ligand (log10) (hypoxanthine [1]) | normalized RNA/DNA level without ligand (log10) (hypoxanthine [2]) |
| --- | --- | --- |
| UUGGCU | 1.98 ± 0.042 | 1.988 ± 0.013 |
| UUUGUU | 1.952 ± 0.018 | 1.87 ± 0.027 |
| UUUGUA | 1.93 ± 0.024 | 1.87 ± 0.089 |
| UUUGUC | 2.0103 ± 0.0014 | 1.99 ± 0.036 |
| UUGGAC | 1.95 ± 0.02 | 1.92 ± 0.043 |
| UUGGAU | 2.004 ± 0.0096 | 1.8482 ± 4.2e-06 |
| UUGGAG | 1.95 ± 0.041 | 1.684 ± 0.0079 |
| UUGGAA | 1.942 ± 0.0068 | 1.771 ± 0.0035 |
| CUGGCG | 1.97 ± 0.029 | 1.827 ± 0.0095 |
| CUGGCA | 1.971 ± 0.0092 | 1.88 ± 0.039 |
| CUGGCC | 1.98 ± 0.16 | 1.91 ± 0.042 |
| CUGGCU | 1.96 ± 0.077 | 1.915 ± 0.0057 |
| CUUCGC | 1.954 ± 0.0084 | 1.88 ± 0.034 |
| CUUCGU | 2.028 ± 0.012 | 1.9 ± 0.045 |
| UUGUAC | 2 ± 0.025 | 1.973 ± 0.0097 |
| UUGUAA | 1.976 ± 0.014 | 1.9 ± 0.042 |
| UUGUAG | 1.99 ± 0.025 | 1.84 ± 0.025 |
| AUUGCC | 1.95 ± 0.021 | 1.85 ± 0.021 |
| AUUGCU | 1.92 ± 0.048 | 1.88 ± 0.048 |
